Test results as given in the supplement of paper PMC10567573.
± gives the standard deviation.

Assay: protein stability index of a GFP-peptide fusion (GPS, HEK-293T) (PSI 1-6); higher = more stable
[1] = treatment: DMSO, c terminus: a fixed tail appended
[2] = treatment: MLN4924 1 uM, 8 h, c terminus: a fixed tail appended
[3] = treatment: DMSO, c terminus: native
[4] = treatment: MLN4924 1 uM, 8 h, c terminus: native
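Also: 24-mer peptide tiles fused after GFP, lentivirally expressed, FACS-sorted into six equal bins by GFP/DsRed ratio, decoded by Illumina sequencing, PSI is the read-weighted mean bin number.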

MAESWLRLSGAGPAEEAGPEGGLE [FOXJ1]
protein stability index [1]: 4.67 ± 0.17
protein stability index [2]: 5.01 ± 0.22

MDEISEKLKKGICEALEDSDGRQD [MATN2]
protein stability index [1]: 5.42 ± 0.25
protein stability index [2]: 5.4 ± 0.17

MECYDIYSKTWTKQPDLTMVRKIG [GAN]
protein stability index [1]: 2.14 ± 0.34
protein stability index [2]: 2.66 ± 0.23

MEGLETAEGSNSESSDDDSEEAPS [SDE2]
protein stability index [1]: 5.51 ± 0.2
protein stability index [2]: 5.51 ± 0.39

MEIATYRKLLESEECRMSGEFPSP [KRT71]
protein stability index [1]: 3.91 ± 0.53
protein stability index [2]: 4.07 ± 0.36

MENQVLTPHVYWAQRHRELYLRVE [HACD3]
protein stability index [1]: 2.4 ± 0.31
protein stability index [2]: 2.35 ± 0.27

MEPSPLSPSGAALPLPLSLAPPPL [ZBTB22]
protein stability index [1]: 4.07 ± 0.35
protein stability index [2]: 4.11 ± 0.18

MESKRLRLLQEEDRRKKIARMGFN [DCAF4]
protein stability index [1]: 3.44 ± 0.36
protein stability index [2]: 3.73 ± 0.48

MFLHPVDYGRKAEELLWRKVYYEV [SMG5]
protein stability index [1]: 2.45 ± 0.59
protein stability index [2]: 2.11 ± 0.22

MGQKVTGGIKTVDMRDPTYRPLKQ [SPSB1]
protein stability index [1]: 3.89 ± 0.22
protein stability index [2]: 4.01 ± 0.28

MKKIKKLENDTISKQLTLEQLRRE [CCDC6]
protein stability index [1]: 3.71 ± 1.1
protein stability index [2]: 3.84 ± 0.67

MKLFDSICNNKWFTDTSIILFLNK [GNAI1]
protein stability index [1]: 2.6 ± 0.59
protein stability index [2]: 2.58 ± 0.59

MKVEAKSHLQWQESRLKRSNPLAR [ZSCAN9]
protein stability index [1]: 3.35 ± 0.33
protein stability index [2]: 3.67 ± 0.19

MLGYKRHLALHAASSGDLTCGVCA [PLAGL1]
protein stability index [1]: 2.53 ± 0.23
protein stability index [2]: 2.73 ± 0.4

MLLSVSQSMSEEEREKVTPLMVKG [SEPHS2]
protein stability index [1]: 3.83 ± 0.36
protein stability index [2]: 3.86 ± 0.43

MLREPAEPVAAEPKQSGSFRYLQG [PDLIM4]
protein stability index [1]: 4.18 ± 0.12
protein stability index [2]: 4.25 ± 0.17

MNARGLGSELKDSIPVTELSASGP [POMP]
protein stability index [1]: 4.78 ± 0.34
protein stability index [2]: 4.62 ± 0.23

MNNAQRIEKWVILEKDFSIYGGEL [ACSBG2]
protein stability index [1]: 2.2 ± 0.12
protein stability index [2]: 2.28 ± 0.57

MPLSGTPAPNKKRKSSKLIMELTG [MYOZ1]
protein stability index [1]: 3.63 ± 0.24
protein stability index [2]: 3.81 ± 0.22

MQVHKETIDAVPNAIPGRTDIELE [ZNF207]
protein stability index [1]: 4.97 ± 0.15
protein stability index [2]: 5.17 ± 0.18

MRAPMLQKQQAPRMDTPPPEERLE [CCDC89]
protein stability index [1]: 5.21 ± 0.24
protein stability index [2]: 5.29 ± 0.29

MRILAHGELVLATAISSFTRHVFT [TLE6]
protein stability index [1]: 3.1 ± 0.61
protein stability index [2]: 2.76 ± 0.35

MSEGKPPDKKKRPRRSLSISKNKK [FAN1]
protein stability index [1]: 5.08 ± 0.17
protein stability index [2]: 5.07 ± 0.21

MSEWSECTAKCGERSVVTRDIRCS [ADAMTSL2]
protein stability index [1]: 3.87 ± 0.45
protein stability index [2]: 3.74 ± 0.051

MSNKDRHIDSSCSSFIKTEPSSPA [ESRRG]
protein stability index [1]: 4.33 ± 0.18
protein stability index [2]: 4.33 ± 0.17

MTPDIHELVENIKSVLKSDEEHME [FAM189A2]
protein stability index [1]: 4.72 ± 0.24
protein stability index [2]: 4.39 ± 0.66

MVDSFHRTSLQYGIMCLKRLNYDR [PPFIA4]
protein stability index [1]: 1.88 ± 0.15
protein stability index [2]: 2.27 ± 0.2

MYILSPAVLRRIQLQPTSIEKEVF [GMPPB]
protein stability index [1]: 2.29 ± 0.42
protein stability index [2]: 2.24 ± 0.41

NDRDFLTRIFTEDRFAQDSEMKKC [PPEF2]
protein stability index [1]: 4.61 ± 0.16
protein stability index [2]: 4.79 ± 0.21

NDRGDHYHWKDLNRGINITIYGKT [EFHC1]
protein stability index [1]: 2.5 ± 0.17
protein stability index [2]: 2.39 ± 0.54

NECEITKRRRKSCQACRFMKCLKV [ESRRG]
protein stability index [1]: 2.57 ± 0.056
protein stability index [2]: 2.95 ± 0.38

NFARLQTCISELRMLQREGCFRSQ [M1AP]
protein stability index [1]: 2.15 ± 0.31
protein stability index [2]: 2.13 ± 0.2

NFFRMFDRNTKRDVTLEASRESSK [PPP2R2C]
protein stability index [1]: 3.74 ± 0.32
protein stability index [2]: 3.73 ± 0.26

NFSAAKSLLKKPDGVKESTESSNT [CAMK2D]
protein stability index [1]: 5.35 ± 0.22
protein stability index [2]: 5.28 ± 0.35

NGKTIEMDTQFTIRARELQNIYKC [IQUB]
protein stability index [1]: 2.57 ± 1.1
protein stability index [2]: 2.8 ± 0.19

NGRKIMGKEVKVNWATTPSSQKKD [TIA1]
protein stability index [1]: 4.43 ± 0.077
protein stability index [2]: 4.55 ± 0.22

NGTRVQEEPELVFTLGDCDVIQAL [FKBP8]
protein stability index [1]: 3.72 ± 0.28
protein stability index [2]: 3.83 ± 0.17

NGVSGPSQDLLPPPNPYPLPQEHS [TBX5]
protein stability index [1]: 4.64 ± 0.33
protein stability index [2]: 4.54 ± 0.56

NHGFEVLYHSVKQGPISTKELADF [FCHO1]
protein stability index [1]: 3.4 ± 0.15
protein stability index [2]: 3.29 ± 0.17

NHPDLAKDLTEYLKVRSHDPEEAI [PDS5B]
protein stability index [1]: 4.7 ± 0.23
protein stability index [2]: 4.43 ± 0.59

NIHPQVLLPDQARGEVPWSPELGR [ZNF263]
protein stability index [1]: 4.12 ± 0.16
protein stability index [2]: 4.34 ± 0.21

NIQANNCFSTGLSRRVLLTNVVTG [DCAF4]
protein stability index [1]: 2.54 ± 0.26
protein stability index [2]: 2.63 ± 0.2

NKLQYHAGLASGLLNQQSLKRSAN [MED27]
protein stability index [1]: 3.47 ± 0.25
protein stability index [2]: 3.51 ± 0.29

NLAAMTPHDFIEHFLSKMPEAEEN [CCND1]
protein stability index [1]: 4.49 ± 0.075
protein stability index [2]: 4.49 ± 0.04

NLAKEQLSRENIQSSLLETLYRNR [PPEF2]
protein stability index [1]: 3.05 ± 0.28
protein stability index [2]: 3.22 ± 0.12

NLFVMQVEMDIYTALKKWMFLQLV [GMCL1]
protein stability index [1]: 2.74 ± 0.66
protein stability index [2]: 2.17 ± 0.39

NLRAAGAEALGKLLQQNKSIQSLT [LRRC45]
protein stability index [1]: 3.26 ± 0.19
protein stability index [2]: 3.33 ± 0.19

NLTRRFSDLGFEVKCFNDLKAEEL [CASP6]
protein stability index [1]: 2.76 ± 0.46
protein stability index [2]: 3 ± 0.27

NLYEEGRTAFLWRGNVVLRAQMIR [TRIM43]
protein stability index [1]: 2.22 ± 0.2
protein stability index [2]: 2.06 ± 0.21

NNPEYLRERNMAPDLRQDFNMMEQ [ADD1]
protein stability index [1]: 4.74 ± 0.27
protein stability index [2]: 4.87 ± 0.18

NPFFAKTLQHWPHIIRIGDLKPTG [DENND6A]
protein stability index [1]: 2.21 ± 0.34
protein stability index [2]: 2.07 ± 0.23

NSAIRFLRKYSFDGLDLDWEYPGS [CHIT1]
protein stability index [1]: 2.38 ± 0.28
protein stability index [2]: 2.36 ± 0.32

NSTLDPHGHLILHSMHKYQPRIHL [TBX6]
protein stability index [1]: 2.19 ± 0.17
protein stability index [2]: 2.34 ± 0.26

NSYPRADTGLFSRSKSGSEEVLCD [TRIM29]
protein stability index [1]: 4.62 ± 0.33
protein stability index [2]: 4.68 ± 0.32

NTFIALALQTLLTLIVVDASGLGL [SLC19A2]
protein stability index [1]: 3.36 ± 0.57
protein stability index [2]: 3.3 ± 0.27

NTLEGKKPGNNEGSGAPSPLSKSS [SNAP91]
protein stability index [1]: 5.41 ± 0.23
protein stability index [2]: 5.35 ± 0.28

NTVERYNPQENRWHTIAPMGTRRK [KLHL20]
protein stability index [1]: 4.43 ± 0.15
protein stability index [2]: 4.59 ± 0.17

NYSSSQDALISVSYTIITPLFNPM [OR10K2]
protein stability index [1]: 3.07 ± 0.46
protein stability index [2]: 2.92 ± 0.33

PAATEAYGSGDTPGGPCDSTLGGD [TBX6]
protein stability index [1]: 5.46 ± 0.25
protein stability index [2]: 5.3 ± 0.55

PAPKRGYSSEMKTEDELRVRHLEE [AUH]
protein stability index [1]: 5.15 ± 0.48
protein stability index [2]: 4.75 ± 0.87

PAWNSKLQYILAQIGFSVGLGNIW [SLC6A17]
protein stability index [1]: 2.83 ± 0.45
protein stability index [2]: 2.47 ± 0.12

PDDFVPPVPPPSYFATFYSCTPRM [FAM189A2]
protein stability index [1]: 2.65 ± 0.15
protein stability index [2]: 2.7 ± 0.32

PDTQALCHHLPVIRQLATSGRFIV [SMG5]
protein stability index [1]: 2.07 ± 0.45
protein stability index [2]: 2.23 ± 0.44

PEPGRAGYPAPRDEGVLRPRAHA [HAGHL]
protein stability index [3]: 3.29 ± 0.19
protein stability index [4]: 3.41 ± 0.28

PERIYQGSSGSYFVKDPQGRIIAV [PI4K2A]
protein stability index [1]: 2.78 ± 0.25
protein stability index [2]: 2.74 ± 0.46

PESVERLTGVSISQVNHKPLRTA [FLOT1]
protein stability index [3]: 2.66 ± 0.69
protein stability index [4]: 3.11 ± 0.18

PETMTCRLSNNQRYLFLDGDSHYE [ZFYVE21]
protein stability index [1]: 2.52 ± 0.45
protein stability index [2]: 2.8 ± 0.33

PFAFVEFEDPRDAEDAVYGRDGYD [SRSF1]
protein stability index [1]: 4.76 ± 0.15
protein stability index [2]: 4.64 ± 0.2

PFVSAMPTPMPHNKGTRFSEAWEY [ZBED2]
protein stability index [1]: 2.88 ± 0.23
protein stability index [2]: 2.94 ± 0.11

PGIDRPGMLCSFRIPGAWSCAWSL [DCAF4]
protein stability index [1]: 3.32 ± 0.45
protein stability index [2]: 2.96 ± 0.61

PGQVAGADFESEDEGEEFDDWEDD [EID1]
protein stability index [1]: 5.52 ± 0.59
protein stability index [2]: 5.59 ± 0.2

PGRRGDPDTAPPSERPLEDLRLRL [RTN2]
protein stability index [1]: 4.43 ± 0.2
protein stability index [2]: 4.63 ± 0.21

PGSASLAQSRLEDPGADSEKSTVV [DLX1]
protein stability index [1]: 5.49 ± 0.38
protein stability index [2]: 5.36 ± 0.26

PHLPRVMLPGVLAGVSAEESWAGP [SCNN1D]
protein stability index [1]: 3.37 ± 0.34
protein stability index [2]: 3.4 ± 0.24

PHYPEYFQQPAPEYHQPQAPANVA [LOXL2]
protein stability index [1]: 4.26 ± 0.2
protein stability index [2]: 4.2 ± 0.28

PIDGTTNFVHRFPFVAVSIGFAVN [IMPA1]
protein stability index [1]: 2.96 ± 0.76
protein stability index [2]: 2.39 ± 0.55

PIGKISKNKKKKLKKKQKRQAELL [SRPK2]
protein stability index [1]: 4.37 ± 0.17

PKPAGGAIPTKKSLPSPSSSGHQN [FBF1]
protein stability index [1]: 4.98 ± 0.14
protein stability index [2]: 4.92 ± 0.17

PLEGSAKGKVQAELSQPLTAGGAI [RBBP5]
protein stability index [1]: 4.88 ± 0.19
protein stability index [2]: 4.72 ± 0.35

PLEPEDALSDAEFEGEGDYEEGMY [P3H4]
protein stability index [1]: 5.59 ± 0.3
protein stability index [2]: 5.44 ± 0.34

PLMVKGFRDAAEEGGTAVTGGQTV [SEPHS2]
protein stability index [1]: 5.05 ± 0.3
protein stability index [2]: 5.16 ± 0.13

PLSVHRPPTSGCLGPVPREDQAEA [TSPAN10]
protein stability index [1]: 5.23 ± 0.17
protein stability index [2]: 5.1 ± 0.075

PNIQEAVEGAMHIQECVPEDLELK [CRYL1]
protein stability index [1]: 5.49 ± 0.13
protein stability index [2]: 5.57 ± 0.19

PNQAMVVAAAGDACPPQHVPPKDS [TBC1D10A]
protein stability index [1]: 5.5 ± 0.14
protein stability index [2]: 5.37 ± 0.12

PPATQNTFGNSTLALGPGESLPHR [PLAGL1]
protein stability index [1]: 4.63 ± 0.34
protein stability index [2]: 4.39 ± 0.083

PPPDAAATAASSSASSPASVGDPC [SLC25A25]
protein stability index [1]: 5.39 ± 0.14
protein stability index [2]: 5.58 ± 0.13

PPPLGPVVPVLVFPPDLVFRADQR [MOSPD3]
protein stability index [1]: 3.25 ± 0.13
protein stability index [2]: 3.22 ± 0.32

PPPSAPASEYCPGKLSWGTMARAL [WDR88]
protein stability index [1]: 3.02 ± 0.24
protein stability index [2]: 2.97 ± 0.4

PPSVLISKNEVGIFTTPNFDETSS [KMT2E]
protein stability index [1]: 4.09 ± 0.12
protein stability index [2]: 4.33 ± 0.069
